Results reported in US20240343811A1 (SHANDONG SIMCERE BIOPHARMACUTICAL, published 2024).
Changes are numbered by the printed parent chain. Read-outs that look alike come from different tables or passages of the source.

Legend:
[1] = molecular target: T1, human CD16a (158F), full length, on FlpinCHO cells (human, UniProt P08637 17-254); experiment: FACS on FlpinCHO cells
Procedure: (§1) The required cells were scale-up cultured in a T-75 cell culture flask to the logarithmic growth phase. The medium was aspirated, and the cells were washed twice with a PBS buffer and then digested with trypsin. After the digestion was terminated, the cells were washed twice with the PBS buffer. The cells were counted, and then the cell pellet was resuspended with a [PBS+2% (w/w) BSA] blocking solution to 2×10⁶ cells/ml, and added to a 96-well FACS reaction plate at 50 μl/well. […] 50 μl/well of the antibody to be detected was added at different concentrations, and incubated on ice for 1 hour. […] The mixture was centrifuged and washed 5 times with PBS, and FACS (FACS Canto II, purchased from BD Company) was used for detection and result analysis. Data analysis was performed by software (CellQuest) to obtain the mean fluorescence intensity (MFI) of the cells. Then, software (GraphPad Prism8) was used for analysis, data fitting and EC50 value calculation.
(§2) The binding of a humanized antibody to FlpinCHO-human CD16a cells was detected according to the method of Example 3.1.

[2] = molecular target: T2, human CD16a (158V), full length, on cells (human, UniProt P08637 17-254); experiment: FACS on FlpinCHO cells
T2 construct: also used as target for the bought Jurkat-NFAT reporter line stably expressing human CD16a (158V); also called FlpinCHO-human CD16a (158V); FlpinCHO-CD16a (158V)
T2 sequence (P08637 17-254 F176V limits assumed): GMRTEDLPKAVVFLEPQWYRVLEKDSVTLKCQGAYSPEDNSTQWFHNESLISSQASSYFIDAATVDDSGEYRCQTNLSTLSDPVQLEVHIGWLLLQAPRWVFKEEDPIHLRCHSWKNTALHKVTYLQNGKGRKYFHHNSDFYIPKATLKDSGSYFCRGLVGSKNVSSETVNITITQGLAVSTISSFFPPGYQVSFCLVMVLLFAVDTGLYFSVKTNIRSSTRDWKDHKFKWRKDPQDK
Procedure: as §1, §2

[3] = molecular target: T3, human CD16b (NA1), full length, on FlpinCHO cells (human, UniProt O75015 17-200); experiment: FACS on FlpinCHO cells
T3 construct: also called FlpinCHO-human CD16b (NA1)
T3 chain: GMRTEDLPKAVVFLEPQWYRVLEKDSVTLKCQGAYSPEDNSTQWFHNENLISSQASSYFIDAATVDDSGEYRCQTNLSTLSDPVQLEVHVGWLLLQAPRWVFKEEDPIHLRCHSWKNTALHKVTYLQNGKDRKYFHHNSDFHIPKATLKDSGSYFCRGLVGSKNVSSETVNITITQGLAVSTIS
Procedure: as §1
(§3) The binding of an antibody to be detected to FlpinCHO-human CD16b cells was detected according to the method of Example 3.1.

[4] = molecular target: T4, human CD16b (NA2), full length, on FlpinCHO cells (human, UniProt O75015 17-200); experiment: FACS on FlpinCHO cells
T4 construct: also called FlpinCHO-human CD16b (NA2)
T4 chain: T3 chain with R20S, N49S, D66N, V90I
Procedure: as §1, §3

[5] = molecular target: T2, human CD16a (158V), full length, on …; experiment: cell-based or functional assay
Human CD16a (158F)-his = molecular target: T5, Human CD16a (158F)-his (human); experiment: SPR (Biacore), antibody captured on Protein A
T5 construct: entry holds ECD, AVI tag, linker and His tag
T5 sequence (chain, as listed by the source limits assumed): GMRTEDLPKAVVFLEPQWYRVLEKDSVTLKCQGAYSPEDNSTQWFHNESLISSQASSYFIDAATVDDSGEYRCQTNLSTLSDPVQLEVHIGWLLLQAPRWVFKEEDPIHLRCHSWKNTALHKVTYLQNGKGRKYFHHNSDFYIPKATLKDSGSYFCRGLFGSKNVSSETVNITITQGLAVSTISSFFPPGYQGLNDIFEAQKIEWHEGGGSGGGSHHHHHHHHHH
Procedure: (§4) A sample buffer and a running buffer were HBS-EP+ (10 mM HEPES, 150 mM NaCl, 3 mM EDTA and 0.05% surfactant P20) (GE Healthcare; BR-1006-69). The flow-through cell was set to 25° C. The sample block was set to 16° C. Both were pretreated with the running buffer. In each cycle, an antibody to be detected was first captured with a Protein A chip, and then a single concentration of CD16 antigen protein was injected. The binding and dissociation processes of the antibody and the antigen protein were recorded, and finally Glycine pH 1.5 (GE Healthcare; BR-1003-54) was used to complete chip regeneration. Binding was measured by injecting different concentrations of recombinant human CD16-ECD his proteins in a solution for 240 s with a flow rate of 30 μL/min, wherein a total of 5 concentrations were prepared by using 200 nM as a starting concentration (see the detailed results for the actual concentration in the test) and performing a 1:1 dilution. The dissociation phase was monitored for up to 600 s and was triggered by switching from a sample solution to a running buffer. The surface was regenerated by washing with a 10 mM glycine solution (pH 1.5) for 30 s at a flow rate of 30 μL/min. Bulk refractive index difference was corrected by subtracting the response obtained from the goat anti-human Fc surface. Blank injection was also subtracted (=double reference). For calculation of apparent KD and other kinetic parameters, Langmuir 1:1 model was used.

[6] = molecular target: T1, human CD16a (158F), full length, on …; experiment: FACS on FlpinCHO cells; remark: listed apart in the source
Procedure: as §1

[7] = molecular target: T2, human CD16a (158V), full length, on …; experiment: FACS on FlpinCHO cells; remark: listed apart in the source
Procedure: as §1

[8] = molecular target: T3, human CD16b (NA1), full length, on …; experiment: FACS on FlpinCHO cells
Procedure: as §1, §3

[9] = molecular target: T4, human CD16b (NA2), full length, on …; experiment: FACS on FlpinCHO cells
Procedure: as §1, §3

[10] = molecular target: T6, CD16 on primary human NK cells (human, UniProt P08637 17-254); experiment: FACS on human NK cells
T6 construct: whole, on cells; also called resting NK cells
T6 sequence (P08637 17-254): as the sequence (P08637 17-254 F176V limits assumed) above, with V160F counted along it
Procedure: as §1
The binding of an antibody to be detected to freshly prepared human NK cells (Milestone Biotechnologies, catalog number: PB56-N-Custom) was detected according to the method of Example 3.1.

[11] = molecular target: T2, human CD16a (158V), full length, on …; experiment: cell-based or functional assay; remark: listed apart in the source
[12] = molecular target: T1, human CD16a (158F), full length, on …; experiment: FACS, biotinylated antibody
Procedure: as §1, with “The” for “The required cells were scale-up cultured in a T-75 cell culture flask to the logarithmic growth phase. The”
(§5) An antibody to be detected was labeled in advance according to the instructions of a biotin labeling kit (EZ-Link™ NHS-PEG4 Biotinylation Kit, purchased from Thermofisher Scientific, catalog number: 21455). […] Detection was performed according to the method of Example 3.1, wherein the biotinylated antibody was detected with fluorescein APC-labeled Streptavidin (High Concentration) (purchased from Biolegend, catalog number: 405243).

[13] = molecular target: T2, human CD16a (158V), full length, on …; experiment: FACS, biotinylated antibody
Procedure: as §1, with “The” for “The required cells were scale-up cultured in a T-75 cell culture flask to the logarithmic growth phase. The”
as §5

Human CD16a (158V)-his = molecular target: T7, Human CD16a (158V)-his (human); experiment: SPR (Biacore), antibody captured on Protein A
T7 construct: entry holds ECD, AVI tag, linker and His tag
T7 sequence (chain, as listed by the source limits assumed): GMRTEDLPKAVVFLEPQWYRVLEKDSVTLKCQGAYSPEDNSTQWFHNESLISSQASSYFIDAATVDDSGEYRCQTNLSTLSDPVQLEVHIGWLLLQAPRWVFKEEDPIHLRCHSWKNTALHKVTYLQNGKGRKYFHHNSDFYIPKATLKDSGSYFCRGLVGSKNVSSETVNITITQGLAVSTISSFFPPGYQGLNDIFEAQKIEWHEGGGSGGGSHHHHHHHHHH
Procedure: as §4

[14] = molecular target: T1, human CD16a (158F), full length, on …; experiment: FACS, biotinylated antibody, +10 mg/mL human immunoglobulin
Procedure: as §1, with “The” for “The required cells were scale-up cultured in a T-75 cell culture flask to the logarithmic growth phase. The”
as §5

[15] = molecular target: T2, human CD16a (158V), full length, on …; experiment: as above
Procedure: as §1, with “The” for “The required cells were scale-up cultured in a T-75 cell culture flask to the logarithmic growth phase. The”
as §5

T1 sequence (P08637 17-254 limits assumed): as the sequence (P08637 17-254 F176V limits assumed) above, with V160F counted along it

B1: VHH06-03 humanized VHH-Fc antibody (Fc fusion)
chain: EVQLVESGGGVVQPGGSLRLSCAASGSTWTTYAVRWYRQAPGKQREWVAFISVDGSTNYADSVKGRFTISRDNSKNTVYLQMNSLRAEDTADYICRVGGQYWGQGTMVTVSSEPKSSDKTHTCPPCPAPEEFGGPSVFLFPPKPKDTLMISRTPEVTCVVVAVSHEDPEVKFNWYVDGVEVHNAKTKPREEQYNSTYRVVSVLTVLHQDWLNGKEYKCKVSNKALPAPIEKTISKAKGQPREPQVYTLPPSREEMTKNQVSLTCLVKGFYPSDIAVEWESNGQPENNYKTTPPVLDSDGSFFLYSKLTVDKSRWQQGNVFSCSVMHEALHNHYTQKSLSLSPGK
EC50 [1]: 0.47 nM | Maximum mean fluorescence intensity [1]: 9140 | EC50 [2]: 0.49 nM | Maximum mean fluorescence intensity [2]: 8390 | EC50 [3]: 0.35 nM | Maximum mean fluorescence intensity [3]: 56900 | Maximum mean fluorescence intensity [4]: 174 | binding result [4]: no binding (tested: 100 nM) | EC50, activation activity for Jurkat cell [5]: 0.02 nM | Maximum fluorescence value [5]: 171000 | Kd (Human CD16a (158F)-his): 28.7 nM | koff (Human CD16a (158F)-his): 0.00129 s⁻¹ | kon (Human CD16a (158F)-his): 44800 M⁻¹ s⁻¹

B2: VHH10 VHH-Fc antibody (Fc fusion)
chain: QVQLVESGGGLVQAGGSLRLSCVGSSSTLTTYAVRWYRQAPGKQREWVAFISVDGSTNYPDSVKGRFIVSRDNAKNTVYLQMNSLKPEDTADYICRAGGQYWGQGTQVTVSSEPKSSDKTHTCPPCPAPEFEGGPSVFLFPPKPKDTLMISRTPEVTCVVVAVSHEDPEVKFNWYVDGVEVHNAKTKPREEQYNSTYRVVSVLTVLHQDWLNGKEYKCKVSNKALPAPIEKTISKAKGQPREPQVYTLPPSREEMTKNQVSLTCLVKGFYPSDIAVEWESNGQPENNYKTTPPVLDSDGSFFLYSKLTVDKSRWQQGNVFSCSVMHEALHNHYTQKSLSLSPGK
EC50 [6]: 0.44 nM | Maximum mean fluorescence intensity [6]: 5620 | EC50 [7]: 0.63 nM | Maximum mean fluorescence intensity [7]: 6480 | EC50 [8]: 0.34 nM | Maximum mean fluorescence intensity [8]: 51400 | Maximum mean fluorescence intensity [9]: 140 | binding result [9]: no binding (tested: 100 nM) | EC50 [10]: 0.45 nM | Maximum mean fluorescence intensity [10]: 2450 | EC50, activation activity for Jurkat cell [11]: 0.02 nM | Maximum fluorescence value [11]: 157000 | EC50 [12]: 0.31 nM | Maximum mean fluorescence intensity [12]: 4690 | EC50 [13]: 0.42 nM | Maximum mean fluorescence intensity [13]: 6980 | Kd (Human CD16a (158F)-his): 39.9 nM | koff (Human CD16a (158F)-his): 0.00247 s⁻¹ | kon (Human CD16a (158F)-his): 61800 M⁻¹ s⁻¹ | Kd (Human CD16a (158V)-his): 13.6 nM | koff (Human CD16a (158V)-his): 0.00146 s⁻¹ | kon (Human CD16a (158V)-his): 107000 M⁻¹ s⁻¹ | EC50 [14]: 1.2 nM | Maximum mean fluorescence intensity [14]: 6040 | EC50 [15]: 1.39 nM | Maximum mean fluorescence intensity [15]: 9200

B3: VHH06-06 humanized VHH-Fc antibody (Fc fusion)
chain: B1 chain with I69V
EC50 [1]: 0.3 nM | Maximum mean fluorescence intensity [1]: 8930 | EC50 [2]: 0.28 nM | Maximum mean fluorescence intensity [2]: 8240 | EC50 [3]: 0.25 nM | Maximum mean fluorescence intensity [3]: 59800 | Maximum mean fluorescence intensity [4]: 204 | binding result [4]: no binding (tested: 100 nM) | EC50, activation activity for Jurkat cell [5]: 0.01 nM | Maximum fluorescence value [5]: 167000 | Kd (Human CD16a (158F)-his): 24.6 nM | koff (Human CD16a (158F)-his): 0.00116 s⁻¹ | kon (Human CD16a (158F)-his): 47100 M⁻¹ s⁻¹

B4: VHH06-07 humanized VHH-Fc antibody (Fc fusion)
chain: B1 chain with M107Q
EC50 [1]: 0.5 nM | Maximum mean fluorescence intensity [1]: 9160 | EC50 [2]: 0.5 nM | Maximum mean fluorescence intensity [2]: 8460 | EC50 [3]: 0.33 nM | Maximum mean fluorescence intensity [3]: 53500 | Maximum mean fluorescence intensity [4]: 167 | binding result [4]: no binding (tested: 100 nM) | EC50, activation activity for Jurkat cell [5]: 0.02 nM | Maximum fluorescence value [5]: 173000 | Kd (Human CD16a (158F)-his): 32.1 nM | koff (Human CD16a (158F)-his): 0.00139 s⁻¹ | kon (Human CD16a (158F)-his): 43100 M⁻¹ s⁻¹

B5: VHH15 VHH-Fc antibody (Fc fusion)
chain: B2 chain with Q1E, G24A, S26T, S56N
EC50 [6]: 0.44 nM | Maximum mean fluorescence intensity [6]: 5600 | EC50 [7]: 0.69 nM | Maximum mean fluorescence intensity [7]: 6490 | EC50 [8]: 0.44 nM | Maximum mean fluorescence intensity [8]: 52100 | Maximum mean fluorescence intensity [9]: 178 | binding result [9]: no binding (tested: 100 nM) | EC50 [10]: 0.74 nM | Maximum mean fluorescence intensity [10]: 2400 | EC50, activation activity for Jurkat cell [11]: 0.02 nM | Maximum fluorescence value [11]: 167000 | EC50 [12]: 0.4 nM | Maximum mean fluorescence intensity [12]: 5240 | EC50 [13]: 0.49 nM | Maximum mean fluorescence intensity [13]: 7260 | Kd (Human CD16a (158F)-his): 42.8 nM | koff (Human CD16a (158F)-his): 0.00273 s⁻¹ | kon (Human CD16a (158F)-his): 63800 M⁻¹ s⁻¹ | Kd (Human CD16a (158V)-his): 14.1 nM | koff (Human CD16a (158V)-his): 0.0016 s⁻¹ | kon (Human CD16a (158V)-his): 114000 M⁻¹ s⁻¹ | EC50 [14]: 1.41 nM | Maximum mean fluorescence intensity [14]: 6570 | EC50 [15]: 1.41 nM | Maximum mean fluorescence intensity [15]: 9030
